This note sets out measurements from patent publication US20070087000A1 (Pfizer, published 2007).

Test [1] deals with T1, Human GDF-8 (mature, recombinant dimer), biotinylated in the ELISAs (human, UniProt O14793 267-375, biotinylated in the direct and competition ELISAs (sites not given)).
T1 construct: It was not biotinylated in the reporter assay; also called myostatin; growth and differentiation factor-8
Briefly: competition ELISA: soluble ActRIIB-Fc as competitor of biotinylated GDF-8 binding to immobilized ActRIIB-Fc. A general note: In an ELISA, binding on a coated surface is turned into a signal by an enzyme label.

Test [2] deals with T1, Human GDF-8 (mature, recombinant …). Briefly: competition ELISA: RK35 inhibits binding of biotinylated GDF-8 to immobilized ActRIIB-Fc; competition ELISA, biotinylated GDF-8 to immobilized ActRIIB-Fc.

B1: Recombinant ActRIIB-Fc chimera (human ActRIIB fused to the human IgG constant region, Fc) (Fc fusion, UniProt Q13705 19-137, looked up)
chain: SGRGEAETRECIYYNANWELERTNQSGLERCEGEQDKRLHCYASWRNSSGTIELVKKGCWLDDFNCYDRQECVATEENPQVYFCCCEGNFCNERFTHLPEAGGPEVTYEPPPTAPTLLT
notes: extracellular domain; The same protein was used immobilised and as the soluble positive control; also called soluble ActRIIB; soluble ActRIIB-Fc receptor; not shown: human IgG1 Fc region
With B1, in test [1], the “IC50 (read off the curve)” value is approximately 0.3 nM.

B2: RK35 anti-GDF-8 mouse monoclonal antibody (antibody, V domains shown)
VH: EVQLVESGGGLVKPGGSLKLSCAASGFTFSSYAMSWVRQTPEKRLEWVATISSGGSYTSYPDSVKGRFTISRDNAKNTLYLQMSSLRSEDTAMYYCARQDYAMNYWGQGTSVTVSS
VL: DIEMTQSHKFMSTSVGDRVSITCKASQDVSTAVAWYQQKPGQSPKLLLYSASYRYTGVPDRFTGSGSGTDFTFTISSVQAEDLAVYYCQQHYSTPWTFGGGTKLEIK
notes: Murine monoclonal antibody from a hybridoma (myostatin knockout BALB/c mice immunised with recombinant GDF-8 dimer); also called RK35 mAb; murine RK35
One may read the IC50 as the concentration needed to halve the response being measured. Regarding B2, in test [2], the IC50 is approximately 2.5 nM.
